Data reported in US20170037124A1.

Key:
Assay in all cases: SPR, blank anti-hFc surface, 500 nM peptide, 25C
[1] = biological target: human ANGPTL8 peptide (hANGPTL8 peptide, SEQ ID NO: 337) (human)
[2] = biological target: peptide from the N-terminal coiled-coil region of human ANGPTL3 (hANGPTL3 peptide, SEQ ID NO: 338) (human)
[3] = biological target: peptide from the N-terminal coiled-coil region of human ANGPTL4 (hANGPTL4 peptide, SEQ ID NO: 339) (human)
peptide from the N-terminal coiled-coil region of human ANGPTL4 (hANGPTL4 peptide, SEQ ID NO: 339) (human), sequence (peptide, as listed by the source): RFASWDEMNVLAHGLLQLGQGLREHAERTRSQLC

peptide from the N-terminal coiled-coil region of human ANGPTL3 (hANGPTL3 peptide, SEQ ID NO: 338) (human), sequence (peptide, as listed by the source): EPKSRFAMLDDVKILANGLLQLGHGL
human ANGPTL8 peptide (hANGPTL8 peptide, SEQ ID NO: 337) (human), sequence (peptide, as listed by the source): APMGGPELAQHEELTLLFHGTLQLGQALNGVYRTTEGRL

Substance: monoclonal mouse anti-human Fc antibody (GE, # BR-1008-39)
- 500 nM hANGPTL8 peptide Bound (RU) [1]: 3 RU
- 500 nM hANGPTL3 peptide Bound (RU) [2]: 0 RU
- 500 nM hAngPTL4 peptide Bound (RU) [3]: 0 RU
